Measured values published in publication PMC11170914, “A distinct dimer configuration of a diatom Get3 forming a tetrameric complex with its tail-anchored membrane cargo” (BMC Biology, 2024).

Biological target: the molecule itself
Assay: SEC; recombinant Get3/TA complex from yeast or zebra fish; SEC and SDS-PAGE (Fig. S10); conditions not shown

Protein | stoichiometry N
Get3 from yeast (recombinant Get3/TA complex) (natural protein, UniProt Q12154 1-354, looked up, Get3 of yeast; also called yeast Get3; source: recombinant, purified as Get3/TA complex) MDLTVEPNLHSLITSTTHKWIFVGGKGGVGKTTSSCSIAIQMALSQPNKQFLLISTDPAHNLSDAFGEKFGKDARKVTGMNNLSCMEIDPSAALKDMNDMAVSRANNNGSDGQGDDLGSLLQGGALADLTGSIPGIDEALSFMEVMKHIKRQEQGEGETFDTVIFDTAPTGHTLRFLQLPNTLSKLLEKFGEITNKLGPMLNSFMGAGNVDISGKLNELKANVETIRQQFTDPDLTTFVCVCISEFLSLYETERLIQELISYDMDVNSIIVNQLLFAENDQEHNCKRCQARWKMQKKYLDQIDELYEDFHVVKMPLCAGEIRGLNNLTKFSQFLNKEYNPITDGKVIYELEDKE | 2
Get3 from zebra fish (recombinant Get3/TA complex) (natural protein, Get3 of zebra fish (Danio rerio); also called zebra fish Get3; source: recombinant, purified as Get3/TA complex) not shown | 2
